The target in one series is T1, PARP3 (UniProt Q9Y6F1 1-533).
T1 sequence: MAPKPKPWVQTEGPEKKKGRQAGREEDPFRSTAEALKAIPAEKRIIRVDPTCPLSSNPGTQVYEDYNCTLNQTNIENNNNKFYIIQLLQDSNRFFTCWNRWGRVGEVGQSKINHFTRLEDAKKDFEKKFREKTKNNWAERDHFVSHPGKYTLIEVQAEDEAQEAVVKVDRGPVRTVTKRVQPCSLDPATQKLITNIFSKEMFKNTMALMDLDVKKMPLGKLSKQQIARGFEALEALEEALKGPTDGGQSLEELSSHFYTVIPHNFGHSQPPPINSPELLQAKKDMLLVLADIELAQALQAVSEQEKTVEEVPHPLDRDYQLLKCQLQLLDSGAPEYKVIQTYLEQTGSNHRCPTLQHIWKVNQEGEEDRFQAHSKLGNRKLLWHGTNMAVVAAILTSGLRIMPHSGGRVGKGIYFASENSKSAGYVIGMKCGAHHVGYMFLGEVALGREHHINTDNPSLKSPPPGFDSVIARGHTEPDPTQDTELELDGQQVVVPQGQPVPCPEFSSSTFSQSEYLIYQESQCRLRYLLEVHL
Kind of series: EMSA; 10 nM DNA, up to 10-fold PARP3 excess; EMSA: 50 mM Tris-HCl pH 8.0, 20 mM NaCl, 0.25 mM EDTA, 5% glycerol, 0.025% NP-40, 37 °C 20 min; 8% PAAG, 0.5x TBE, 10 °C. The following applies: protein: recombinant; label: 5'-32P on O1-Pho strand; 5' overhang 5 nt on strand 1 as printed; other end blunt.

The target of series [1] is T2, PARP1 (human, UniProt P09874 1-1014). Kind of series: photo-cross-linking; no NAD+; 200 nM PARP1, 100 nM DNA; EMSA: 50 mM Tris-HCl pH 8.0, 20 mM NaCl, 0.25 mM EDTA, 5% glycerol, 0.025% NP-40, 37 °C 20 min; 8% PAAG, 0.5x TBE, 10 °C. The following applies: protein: recombinant; label: 5'-32P; 5' overhang 4 nt on strand 1; other end blunt.
In a further series the target is PARP2 (human, UniProt Q9UGN5 1-583). Kind of series: photo-cross-linking; no NAD+; 200 nM PARP2, 100 nM DNA; EMSA: 50 mM Tris-HCl pH 8.0, 20 mM NaCl, 0.25 mM EDTA, 5% glycerol, 0.025% NP-40, 37 °C 20 min; 8% PAAG, 0.5x TBE, 10 °C. To be noted: protein: recombinant; label: 5'-32P; 5' overhang 4 nt on strand 1; other end blunt. For orientation: Mobility shift assays separate free from complexed probe on a gel.

Series [2] concerns the target T2, PARP1. Kind of series: photo-cross-linking; 100 nM DNA, 100 nM protein; EMSA: 50 mM Tris-HCl pH 8.0, 20 mM NaCl, 0.25 mM EDTA, 5% glycerol, 0.025% NP-40, 37 °C 20 min; 8% PAAG, 0.5x TBE, 10 °C. The following applies: protein: recombinant; nicked duplex, blunt ends, strands 1 and 2 paired to strand 3.
A further series concerns the target Ku antigen (Ku70/Ku80) (UniProt P12956;P13010 1-609;1-732). The series is described as follows: photo-cross-linking; 100 nM DNA, 100 nM protein; Ku70 and Ku80 labelled; EMSA: 50 mM Tris-HCl pH 8.0, 20 mM NaCl, 0.25 mM EDTA, 5% glycerol, 0.025% NP-40, 37 °C 20 min; 8% PAAG, 0.5x TBE, 10 °C. To be noted: copies: 1;1; nicked duplex, blunt ends, strands 1 and 2 paired to strand 3.

The record followed here is PMC12346409, “Amphiphilic Oligonucleotide Derivatives as a Tool to Study DNA Repair Proteins”.

T2 sequence (P09874 whole entry): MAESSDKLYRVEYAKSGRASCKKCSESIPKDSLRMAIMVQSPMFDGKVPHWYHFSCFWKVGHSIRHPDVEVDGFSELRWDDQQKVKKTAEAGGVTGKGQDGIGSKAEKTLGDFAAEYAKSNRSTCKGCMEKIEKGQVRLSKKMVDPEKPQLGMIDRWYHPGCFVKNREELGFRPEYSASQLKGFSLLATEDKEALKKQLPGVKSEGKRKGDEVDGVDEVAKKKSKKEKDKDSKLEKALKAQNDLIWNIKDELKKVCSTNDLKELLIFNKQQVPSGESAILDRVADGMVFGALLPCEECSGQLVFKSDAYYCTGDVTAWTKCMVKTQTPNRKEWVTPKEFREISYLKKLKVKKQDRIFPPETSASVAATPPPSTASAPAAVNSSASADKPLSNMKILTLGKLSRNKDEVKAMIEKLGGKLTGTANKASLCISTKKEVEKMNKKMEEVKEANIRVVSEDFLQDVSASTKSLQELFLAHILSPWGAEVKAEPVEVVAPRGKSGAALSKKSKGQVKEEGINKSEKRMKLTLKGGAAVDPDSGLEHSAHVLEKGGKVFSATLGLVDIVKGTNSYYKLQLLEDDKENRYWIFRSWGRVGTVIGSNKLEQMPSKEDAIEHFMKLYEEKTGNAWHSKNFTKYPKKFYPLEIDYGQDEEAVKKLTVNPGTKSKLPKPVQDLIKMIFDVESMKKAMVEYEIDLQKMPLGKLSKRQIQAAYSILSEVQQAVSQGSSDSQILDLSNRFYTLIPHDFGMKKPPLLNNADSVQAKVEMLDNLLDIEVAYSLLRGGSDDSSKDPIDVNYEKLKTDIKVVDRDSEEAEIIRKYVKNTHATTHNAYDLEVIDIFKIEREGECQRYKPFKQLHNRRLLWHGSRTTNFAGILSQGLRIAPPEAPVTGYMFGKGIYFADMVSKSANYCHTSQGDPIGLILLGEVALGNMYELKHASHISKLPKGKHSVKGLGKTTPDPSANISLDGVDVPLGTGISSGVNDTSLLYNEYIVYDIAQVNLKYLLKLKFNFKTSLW
Chain of PARP2 (Q9UGN5 whole entry): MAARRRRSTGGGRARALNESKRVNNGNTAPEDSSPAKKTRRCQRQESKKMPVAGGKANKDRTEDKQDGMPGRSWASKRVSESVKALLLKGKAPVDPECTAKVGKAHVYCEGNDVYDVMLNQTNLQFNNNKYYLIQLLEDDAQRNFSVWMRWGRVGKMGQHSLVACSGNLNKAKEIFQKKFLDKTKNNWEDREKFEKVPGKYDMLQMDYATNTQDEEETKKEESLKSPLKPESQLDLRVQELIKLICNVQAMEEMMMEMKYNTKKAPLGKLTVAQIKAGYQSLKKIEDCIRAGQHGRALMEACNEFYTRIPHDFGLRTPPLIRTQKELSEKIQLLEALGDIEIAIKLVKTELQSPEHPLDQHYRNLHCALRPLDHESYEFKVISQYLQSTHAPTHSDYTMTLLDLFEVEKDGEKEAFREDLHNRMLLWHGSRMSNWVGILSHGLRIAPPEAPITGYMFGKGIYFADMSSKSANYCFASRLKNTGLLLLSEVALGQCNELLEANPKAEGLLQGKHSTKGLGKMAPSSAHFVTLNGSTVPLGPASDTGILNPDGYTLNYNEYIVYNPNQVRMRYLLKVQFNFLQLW
Chain of Ku antigen (Ku70/Ku80) (P12956 whole entry, chain 1 of 2): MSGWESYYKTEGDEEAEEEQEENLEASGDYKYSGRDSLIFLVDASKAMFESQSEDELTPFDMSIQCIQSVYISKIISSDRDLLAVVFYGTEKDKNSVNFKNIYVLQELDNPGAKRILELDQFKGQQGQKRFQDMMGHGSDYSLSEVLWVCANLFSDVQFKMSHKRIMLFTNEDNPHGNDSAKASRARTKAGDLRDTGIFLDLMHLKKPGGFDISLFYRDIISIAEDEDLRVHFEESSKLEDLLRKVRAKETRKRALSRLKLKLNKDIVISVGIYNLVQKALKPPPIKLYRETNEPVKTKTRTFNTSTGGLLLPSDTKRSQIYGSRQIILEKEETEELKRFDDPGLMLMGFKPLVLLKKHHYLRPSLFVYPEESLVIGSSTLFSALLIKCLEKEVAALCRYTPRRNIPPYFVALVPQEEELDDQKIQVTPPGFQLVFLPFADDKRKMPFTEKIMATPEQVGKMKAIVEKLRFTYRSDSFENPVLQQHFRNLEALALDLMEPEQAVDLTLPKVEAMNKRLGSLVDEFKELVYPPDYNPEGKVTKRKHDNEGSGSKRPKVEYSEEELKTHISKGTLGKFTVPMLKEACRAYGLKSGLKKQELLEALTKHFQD
Chain of Ku antigen (Ku70/Ku80) (P13010 whole entry, chain 2 of 2): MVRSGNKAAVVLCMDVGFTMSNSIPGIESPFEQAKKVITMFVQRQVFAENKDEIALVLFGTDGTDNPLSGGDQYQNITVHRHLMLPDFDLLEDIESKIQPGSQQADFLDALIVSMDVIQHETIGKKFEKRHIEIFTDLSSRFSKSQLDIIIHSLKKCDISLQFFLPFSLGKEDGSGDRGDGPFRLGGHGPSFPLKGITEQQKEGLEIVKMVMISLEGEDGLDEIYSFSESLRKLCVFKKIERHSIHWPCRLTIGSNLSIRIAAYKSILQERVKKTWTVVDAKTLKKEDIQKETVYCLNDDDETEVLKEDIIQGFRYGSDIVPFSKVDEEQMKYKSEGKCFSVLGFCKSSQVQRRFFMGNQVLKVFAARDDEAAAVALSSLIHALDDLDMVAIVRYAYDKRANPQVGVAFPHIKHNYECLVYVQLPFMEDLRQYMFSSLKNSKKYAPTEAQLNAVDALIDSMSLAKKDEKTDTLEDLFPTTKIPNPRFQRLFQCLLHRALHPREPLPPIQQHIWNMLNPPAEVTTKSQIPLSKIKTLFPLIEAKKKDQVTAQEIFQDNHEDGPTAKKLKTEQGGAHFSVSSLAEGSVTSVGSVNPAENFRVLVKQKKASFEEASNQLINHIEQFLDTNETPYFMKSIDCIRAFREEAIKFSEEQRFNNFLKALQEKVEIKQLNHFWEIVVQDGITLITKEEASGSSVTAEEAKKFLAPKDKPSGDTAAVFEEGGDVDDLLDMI

B1: DNA-R (EMSA, O-R/O1-Pho) (dsDNA)
DNA 1: TCCTGACATACTTGATACTTAGACATTCTT
DNA 2: AAGAATGTCTAAGTATCAAGTATGT
As to B1, the binding result with PARP3 was “no binding”.

B2: Pho-DNA-R (dsDNA)
DNA 1: B1 DNA 1
DNA 2: AAGAATGTCTAAGTATCAAGTATGTC
modifications: 3'-terminal FAP-dCMP (photoactivatable C) on strand 2
Turning to B2, the binding result with PARP1 [1] and in the series with PARP2 was “binds” in each case.

B3: Pho-dRP (dsDNA)
DNA 1: GGCGACTAAGCCGGGC
DNA 2: AACGCCAGGGCCTCCC
DNA 3: GGGAGGCCCTGGCGTTGCCCGGCTTAGTCGCC
modifications: 3'-terminal FAP-dCMP on strand 1; 5'-dRP on strand 2
As to B3, the binding result with PARP1 [2] and with Ku antigen (Ku70/Ku80) was “binds” each time.
